# T1: human C1s deletion mutant 2 (NHC) (human, UniProt P09871 16-437)
# T1 construct: C-terminal 6xHis tag; also called HuC1s(NHC); huC1sNHC
# T1 sequence: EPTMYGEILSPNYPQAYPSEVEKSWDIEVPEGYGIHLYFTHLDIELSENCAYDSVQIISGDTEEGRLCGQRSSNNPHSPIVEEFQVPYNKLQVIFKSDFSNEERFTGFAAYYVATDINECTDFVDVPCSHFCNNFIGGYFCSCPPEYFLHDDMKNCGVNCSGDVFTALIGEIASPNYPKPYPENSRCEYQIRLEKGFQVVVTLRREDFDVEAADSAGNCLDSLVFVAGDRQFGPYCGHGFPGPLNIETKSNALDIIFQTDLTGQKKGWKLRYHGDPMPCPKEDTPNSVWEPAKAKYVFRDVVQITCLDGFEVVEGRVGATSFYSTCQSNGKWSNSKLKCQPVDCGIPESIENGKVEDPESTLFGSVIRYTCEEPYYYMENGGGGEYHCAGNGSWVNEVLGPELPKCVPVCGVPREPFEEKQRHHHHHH
# T2: cynomolgus monkey C1s (produced in house) (cynomolgus monkey, UniProt P09871 16-685 (human entry), limits assumed)
# T2 construct: also called CyC1s
# T2 chain: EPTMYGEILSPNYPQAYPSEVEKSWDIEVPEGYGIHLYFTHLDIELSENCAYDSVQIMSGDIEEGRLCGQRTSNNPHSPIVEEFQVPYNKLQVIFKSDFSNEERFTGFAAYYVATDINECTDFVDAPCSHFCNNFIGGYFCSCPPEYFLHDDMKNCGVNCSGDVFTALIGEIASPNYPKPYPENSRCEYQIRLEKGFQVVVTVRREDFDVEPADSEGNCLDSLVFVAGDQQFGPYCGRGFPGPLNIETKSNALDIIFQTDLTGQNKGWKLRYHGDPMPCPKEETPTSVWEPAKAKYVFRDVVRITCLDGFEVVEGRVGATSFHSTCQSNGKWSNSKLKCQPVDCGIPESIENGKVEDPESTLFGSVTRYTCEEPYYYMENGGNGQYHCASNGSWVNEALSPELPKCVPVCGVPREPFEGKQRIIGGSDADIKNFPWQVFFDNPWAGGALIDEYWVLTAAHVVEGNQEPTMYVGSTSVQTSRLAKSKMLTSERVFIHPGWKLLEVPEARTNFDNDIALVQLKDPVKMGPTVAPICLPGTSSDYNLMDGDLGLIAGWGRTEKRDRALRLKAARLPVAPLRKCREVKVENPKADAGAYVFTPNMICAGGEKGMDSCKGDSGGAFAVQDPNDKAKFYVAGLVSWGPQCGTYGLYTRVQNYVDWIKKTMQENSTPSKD
# B1: Anti-C1s antibody 2-7 (antibody, human IgG1, kappa, V domains shown)
# VH: EVKLEESGGGLVPPGGSMKLSCVASGFTFSNYFMNWVRQSPEKGLEWVAEIRLKFTNYATHYAESVEGRFTISRDDSKSSVYLQMNNLRAEDTGIYYCTRDYGSRNGYFDYWGQGTTLTVSS
# VL: DIVMTQAAPSVPVTPGESVSISCRSSKSLLHSNGNTFLYWFLQRPGQSPQLLIYRMSNLASGVPDRFSGSGSGTAFTLRVSRVEAEDVGIYYCMQHLEYPYTFGGGTKLEIKT
# notes: the HC/LC entries may hold it too; also called clone 2-7
# B2: Anti-C1s antibody 2-8 (antibody, V domains shown)
# VH: EVQLQQSGAELVRPGALVKLSCKASGFNIKEYYMHWVKQRPEQGLEWIGWIDPENGDTIYDPKFQGKASITADTSSNTAYLQLSSLTSEDTAVYYCARSRLFFAYWGQGTLVTVSA
# VL: DIVMTQSHKFMSTSVGDRVSFTCKASQDVRTAVDWYQQKPGQSPKLLIYSASYRYTGVPDRFTGTGSGTDFTFTISSVQAEDLAVYFCQQQYTTPYTFGGGTKLEIKT
# notes: the HC/LC entries may hold it too; also called clone 2-8
# B3: Anti-C1s antibody hz2-7(H1L2) (antibody, V domains shown)
# VH: EVQLLESGGGLVQPGGSLRLSCAASGFTFSNYFMNWVRQAPGKGLEWVSEIRLKFTNYATHYADSVKGRFTISRDDSKSTLYLQMNSLRAEDTAVYYCTRDYGSRNGYFDYWGQGTLVTVSS
# VL: DIVMTQTPLSLPVTPGEPASISCRSSKSLLHSNGNTFLYWFLQKPGQSPQLLIYRMSNLASGVPDRFSGSGSGTDFTLKISRVEAEDVGVYYCMQHLEYPYTFGGGTKLEIKR
# notes: Humanized, human IgG1 / kappa; also called hz2-7(1L2)
# B4: Anti-C1s antibody hz2-8 (H1L2 G80A/T82A) (antibody, V domains shown)
# VH: QVQLVQSGAEVKKPGASVKVSCKASGFNIKEYYMHWVRQAPEQGLEWMGWIDPENADAIYAQKFQGRVTITADTSTNTAYMELSSLRSEDTAVYYCARSRLFFAYWGQGTLVTVSS
# VL: DIQMTQSPKSLSASVGDRVTITCRASQDVRTALDWYQQKPGQSPKLLIYSASYRYSGVPSRFSGSGSGTDFTLTISSLQPEDFATYYCQQQYTTPYTFGQGTKLEIKR
# notes: Humanized variant with G80A and T82A in HC CDR2 (already in the entry), human IgG1 / kappa
# Target: T1, human C1s deletion mutant 2 (NHC)
# Experiment: ELISA, plate coated with 200 ng/well HuC1s(NHC), OD450nm
# Experimental: ELISA was carried out by first coating 96-well plates with 200 ng/well of full-length or truncated C1s proteins overnight. The next morning, plates were blocked with SuperBlock T20 blocking buffer (Thermo Scientific 37536) for 1 h with gentle shaking. Then, various concentrations of anti-C1s antibodies diluted in SuperBlock T20 blocking buffer were added to the plates and incubated for 1 h with gentle shaking. Mouse IgG (Sigma-Aldrich 15381) and human IgG1 (BioXCell BP0297) were used as negative controls. The plates were washed before incubating with HRP conjugated secondary antibodies diluted in SuperBlock T20 blocking buffer (goat anti-mouse IgG (H+L) cross-adsorbed secondary antibody HRP (Invitrogen G-21040) or goat anti-human IgG antibody, HRP conjugate (Millipore AP309P)) for 1 h with gentle shaking. At last, the plates were washed and color developed with ELISA liquid HRP substrate (Sigma-Aldrich), followed by stopping the reaction with addition of 1M H₂SO₄ in the same volume as the ELISA liquid substrate. Bound antibody was measured by absorbance at OD₄₅₀ₙₘ.
row,Binder,EC50
1,B1,0.009 µg/mL
2,B2,0.012 µg/mL
3,B3,0.006 µg/mL

# Target: T2, cynomolgus monkey C1s (produced in …)
# Experiment: ELISA, plate coated with 200 ng/well CyC1s, OD450nm
# Experimental: The next morning, plates were blocked with SuperBlock T20 blocking buffer (Thermo Scientific 37536) for 1 h with gentle shaking. Then, various concentrations of anti-C1s antibodies diluted in SuperBlock T20 blocking buffer were added to the plates and incubated for 1 h with gentle shaking. Mouse IgG (Sigma-Aldrich I5381) and Human IgG1 (BioXCell BP0297) were used as negative controls. The plates were washed before incubating with HRP conjugated secondary antibodies diluted in SuperBlock T20 blocking buffer (goat anti-mouse IgG (H+L) cross-adsorbed secondary antibody HRP (Invitrogen G-21040) or goat anti-human IgG antibody, HRP conjugate (Millipore AP309P)) for 1 h with gentle shaking. At last, the plates were washed and color developed with ELISA liquid substrate (Sigma-Aldrich), followed by stopping the reaction with addition of the same volume of […] 1M H₂SO₄. Bound antibody was measured by absorbance at OD₄₅₀ₙₘ.
row,Binder,EC50
1,B1,0.011 µg/mL
2,B2,0.012 µg/mL
3,B3,0.015 µg/mL
4,B4,0.01 µg/mL
